Publication PMC11442470

Molecular target: GLS1 (endogenous, both KGA and GAC) (UniProt D3Z7P3)
Assay: IP of endogenous GLS1, blot PDZD8
Conditions: reference: wild type PDZD8; sites T527

binding against the reference: weaker
Substance: PDZD8 (from UniProt Q8NEN9) T527A
